{"source": "patent US20170015742A1", "about": "(published 2017)", "binders": {"B1": {"name": "9E8.4E-LS-9A8.12 (bispecific antibody, human IgG1, kappa, L234A L235A)", "heavy": "EVTLRESGPALVKPTQTLTLTCTFSGFSLSTYGMGVGWIRQPPGKALEWLANIWWDDDKYYNPSLKNRLTISKDTSKNQVVLTMTNMDPVDTATYYCARIESIGTTYSFDYWGQGTMVTVSSASTKGPSVFPLAPEVQLVQSGAEVKKPGASVKVSCKASGYTFTNYGMYWVRQAPGQGLEWMGWINTETGKPIYADDFKGRVTMTTDTSTSTAYMELRSLRSDDTAVYYCARVDYDGSFWFAYWGQGTLVTVSSASTKGPSVFPLAPSSKSTSGGTAALGCLVKDYFPEPVTVSWNSGALTSGVHTFPAVLQSSGLYSLSSVVTVPSSSLGTQTYICNVNHKPSNTKVDKKVEPKSCDKTHTCPPCPAPEAAGGPSVFLFPPKPKDTLMISRTPEVTCVVVDVSHEDPEVKFNWYVDGVEVHNAKTKPREEQYNSTYRVVSVLTVLHQDWLNGKEYKCKVSNKALPAPIEKTISKAKGQPREPQVYTLPPSREEMTKNQVSLTCLVKGFYPSDIAVEWESNGQPENNYKTTPPVLDSDGSFFLYSKLTVDKSRWQQGNVFSCSVMHEALHNAYTQKSLSLSPGK", "light": "EFVLTQSPGTLSLSPGERATLSCERSSGDIGESYVSWYQQKPGQAPRLVIYADDQRPSGIPDRFSGSGSGTDFTLTISRLEPEDFAVYYCQSYDINIDIVFGGGTKVEIKRTVAAPDTQLTQSPSSLSASVGDRVTITCRASESVSTVIHWYQQKPGKQPKLLIHGASNLESGVPSRFSGSGSGTDFTLTISSLQPEDFATYFCQQHWNDPPTFGQGTKLEIKRTVAAPSVFIFPPSDEQLKSGTASVVCLLNNFYPREAKVQWKVDNALQSGNSQESVTEQDSKDSTYSLSSTLTLSKADYEKHKVYACEVTHQGLSSPVTKSFNRGEC"}, "B2": {"name": "9E8.4E-SL-9A8.12 DVD-Ig (PR-1577548) (bispecific antibody, human IgG1, kappa, L234A L235A)", "heavy": "EVTLRESGPALVKPTQTLTLTCTFSGFSLSTYGMGVGWIRQPPGKALEWLANIWWDDDKYYNPSLKNRLTISKDTSKNQVVLTMTNMDPVDTATYYCARIESIGTTYSFDYWGQGTMVTVSSASTKGPEVQLVQSGAEVKKPGASVKVSCKASGYTFTNYGMYWVRQAPGQGLEWMGWINTETGKPIYADDFKGRVTMTTDTSTSTAYMELRSLRSDDTAVYYCARVDYDGSFWFAYWGQGTLVTVSSASTKGPSVFPLAPSSKSTSGGTAALGCLVKDYFPEPVTVSWNSGALTSGVHTFPAVLQSSGLYSLSSVVTVPSSSLGTQTYICNVNHKPSNTKVDKKVEPKSCDKTHTCPPCPAPEAAGGPSVFLFPPKPKDTLMISRTPEVTCVVVDVSHEDPEVKFNWYVDGVEVHNAKTKPREEQYNSTYRVVSVLTVLHQDWLNGKEYKCKVSNKALPAPIEKTISKAKGQPREPQVYTLPPSREEMTKNQVSLTCLVKGFYPSDIAVEWESNGQPENNYKTTPPVLDSDGSFFLYSKLTVDKSRWQQGNVFSCSVMHEALHNAYTQKSLSLSPGK", "light": "EFVLTQSPGTLSLSPGERATLSCERSSGDIGESYVSWYQQKPGQAPRLVIYADDQRPSGIPDRFSGSGSGTDFTLTISRLEPEDFAVYYCQSYDINIDIVFGGGTKVEIKRTVAAPSVFIFPPDTQLTQSPSSLSASVGDRVTITCRASESVSTVIHWYQQKPGKQPKLLIHGASNLESGVPSRFSGSGSGTDFTLTISSLQPEDFATYFCQQHWNDPPTFGQGTKLEIKRTVAAPSVFIFPPSDEQLKSGTASVVCLLNNFYPREAKVQWKVDNALQSGNSQESVTEQDSKDSTYSLSSTLTLSKADYEKHKVYACEVTHQGLSSPVTKSFNRGEC"}, "B3": {"name": "9A8.12-SL-9E8.4E DVD-Ig (PR-1577166) (bispecific antibody, human IgG1, kappa, L234A L235A)", "heavy": "EVQLVQSGAEVKKPGASVKVSCKASGYTFTNYGMYWVRQAPGQGLEWMGWINTETGKPIYADDFKGRVTMTTDTSTSTAYMELRSLRSDDTAVYYCARVDYDGSFWFAYWGQGTLVTVSSASTKGPEVTLRESGPALVKPTQTLTLTCTFSGFSLSTYGMGVGWIRQPPGKALEWLANIWWDDDKYYNPSLKNRLTISKDTSKNQVVLTMTNMDPVDTATYYCARIESIGTTYSFDYWGQGTMVTVSSASTKGPSVFPLAPSSKSTSGGTAALGCLVKDYFPEPVTVSWNSGALTSGVHTFPAVLQSSGLYSLSSVVTVPSSSLGTQTYICNVNHKPSNTKVDKKVEPKSCDKTHTCPPCPAPEAAGGPSVFLFPPKPKDTLMISRTPEVTCVVVDVSHEDPEVKFNWYVDGVEVHNAKTKPREEQYNSTYRVVSVLTVLHQDWLNGKEYKCKVSNKALPAPIEKTISKAKGQPREPQVYTLPPSREEMTKNQVSLTCLVKGFYPSDIAVEWESNGQPENNYKTTPPVLDSDGSFFLYSKLTVDKSRWQQGNVFSCSVMHEALHNAYTQKSLSLSPGK", "light": "DTQLTQSPSSLSASVGDRVTITCRASESVSTVIHWYQQKPGKQPKLLIHGASNLESGVPSRFSGSGSGTDFTLTISSLQPEDFATYFCQQHWNDPPTFGQGTKLEIKRTVAAPSVFIFPPEFVLTQSPGTLSLSPGERATLSCERSSGDIGESYVSWYQQKPGQAPRLVIYADDQRPSGIPDRFSGSGSGTDFTLTISRLEPEDFAVYYCQSYDINIDIVFGGGTKVEIKRTVAAPSVFIFPPSDEQLKSGTASVVCLLNNFYPREAKVQWKVDNALQSGNSQESVTEQDSKDSTYSLSSTLTLSKADYEKHKVYACEVTHQGLSSPVTKSFNRGEC"}, "B4": {"name": "4G8.3-LS-9E8.4E DVD-Ig (PR-1575835) (bispecific antibody, human IgG1, kappa, L234A L235A)", "heavy": "EVQLVQSGSELKKPGASVKVSCKASGYTFTNYGMYWVRQAPGQGLEWMGWINTETGKPTYADDFKGRFVFSLDTSVSTAYLQISSLKAEDTAVYYCARTNYYYRSYIFYFDYWGQGTMVTVSSASTKGPSVFPLAPEVTLRESGPALVKPTQTLTLTCTFSGFSLSTYGMGVGWIRQPPGKALEWLANIWWDDDKYYNPSLKNRLTISKDTSKNQVVLTMTNMDPVDTATYYCARIESIGTTYSFDYWGQGTMVTVSSASTKGPSVFPLAPSSKSTSGGTAALGCLVKDYFPEPVTVSWNSGALTSGVHTFPAVLQSSGLYSLSSVVTVPSSSLGTQTYICNVNHKPSNTKVDKKVEPKSCDKTHTCPPCPAPEAAGGPSVFLFPPKPKDTLMISRTPEVTCVVVDVSHEDPEVKFNWYVDGVEVHNAKTKPREEQYNSTYRVVSVLTVLHQDWLNGKEYKCKVSNKALPAPIEKTISKAKGQPREPQVYTLPPSREEMTKNQVSLTCLVKGFYPSDIAVEWESNGQPENNYKTTPPVLDSDGSFFLYSKLTVDKSRWQQGNVFSCSVMHEALHNAYTQKSLSLSPGK", "light": "DTVLTQSPATLSLSPGERATLSCRASESVSTHMHWYQQKPGQAPRLLIYGASNLESGVPARFSGSGSGTDFTLTISSLEPEDFAVYFCQQSWNDPFTFGQGTKLEIKRTVAAPEFVLTQSPGTLSLSPGERATLSCERSSGDIGESYVSWYQQKPGQAPRLVIYADDQRPSGIPDRFSGSGSGTDFTLTISRLEPEDFAVYYCQSYDINIDIVFGGGTKVEIKRTVAAPSVFIFPPSDEQLKSGTASVVCLLNNFYPREAKVQWKVDNALQSGNSQESVTEQDSKDSTYSLSSTLTLSKADYEKHKVYACEVTHQGLSSPVTKSFNRGEC"}, "B5": {"name": "9A8.12-LS-9E8.4E DVD-Ig (PR-1577547) (bispecific antibody, human IgG1, kappa, L234A L235A)", "heavy": "EVQLVQSGAEVKKPGASVKVSCKASGYTFTNYGMYWVRQAPGQGLEWMGWINTETGKPIYADDFKGRVTMTTDTSTSTAYMELRSLRSDDTAVYYCARVDYDGSFWFAYWGQGTLVTVSSASTKGPSVFPLAPEVTLRESGPALVKPTQTLTLTCTFSGFSLSTYGMGVGWIRQPPGKALEWLANIWWDDDKYYNPSLKNRLTISKDTSKNQVVLTMTNMDPVDTATYYCARIESIGTTYSFDYWGQGTMVTVSSASTKGPSVFPLAPSSKSTSGGTAALGCLVKDYFPEPVTVSWNSGALTSGVHTFPAVLQSSGLYSLSSVVTVPSSSLGTQTYICNVNHKPSNTKVDKKVEPKSCDKTHTCPPCPAPEAAGGPSVFLFPPKPKDTLMISRTPEVTCVVVDVSHEDPEVKFNWYVDGVEVHNAKTKPREEQYNSTYRVVSVLTVLHQDWLNGKEYKCKVSNKALPAPIEKTISKAKGQPREPQVYTLPPSREEMTKNQVSLTCLVKGFYPSDIAVEWESNGQPENNYKTTPPVLDSDGSFFLYSKLTVDKSRWQQGNVFSCSVMHEALHNAYTQKSLSLSPGK", "light": "DTQLTQSPSSLSASVGDRVTITCRASESVSTVIHWYQQKPGKQPKLLIHGASNLESGVPSRFSGSGSGTDFTLTISSLQPEDFATYFCQQHWNDPPTFGQGTKLEIKRTVAAPEFVLTQSPGTLSLSPGERATLSCERSSGDIGESYVSWYQQKPGQAPRLVIYADDQRPSGIPDRFSGSGSGTDFTLTISRLEPEDFAVYYCQSYDINIDIVFGGGTKVEIKRTVAAPSVFIFPPSDEQLKSGTASVVCLLNNFYPREAKVQWKVDNALQSGNSQESVTEQDSKDSTYSLSSTLTLSKADYEKHKVYACEVTHQGLSSPVTKSFNRGEC"}, "B6": {"name": "9A8.12-GS-9E8.4E DVD-Ig (PR-1577165) (bispecific antibody, human IgG1, kappa, L234A L235A)", "heavy": "EVQLVQSGAEVKKPGASVKVSCKASGYTFTNYGMYWVRQAPGQGLEWMGWINTETGKPIYADDFKGRVTMTTDTSTSTAYMELRSLRSDDTAVYYCARVDYDGSFWFAYWGQGTLVTVSSGGGGSGGGGSEVTLRESGPALVKPTQTLTLTCTFSGFSLSTYGMGVGWIRQPPGKALEWLANIWWDDDKYYNPSLKNRLTISKDTSKNQVVLTMTNMDPVDTATYYCARIESIGTTYSFDYWGQGTMVTVSSASTKGPSVFPLAPSSKSTSGGTAALGCLVKDYFPEPVTVSWNSGALTSGVHTFPAVLQSSGLYSLSSVVTVPSSSLGTQTYICNVNHKPSNTKVDKKVEPKSCDKTHTCPPCPAPEAAGGPSVFLFPPKPKDTLMISRTPEVTCVVVDVSHEDPEVKFNWYVDGVEVHNAKTKPREEQYNSTYRVVSVLTVLHQDWLNGKEYKCKVSNKALPAPIEKTISKAKGQPREPQVYTLPPSREEMTKNQVSLTCLVKGFYPSDIAVEWESNGQPENNYKTTPPVLDSDGSFFLYSKLTVDKSRWQQGNVFSCSVMHEALHNAYTQKSLSLSPGK", "light": "DTQLTQSPSSLSASVGDRVTITCRASESVSTVIHWYQQKPGKQPKLLIHGASNLESGVPSRFSGSGSGTDFTLTISSLQPEDFATYFCQQHWNDPPTFGQGTKLEIKRGGSGGGGSGEFVLTQSPGTLSLSPGERATLSCERSSGDIGESYVSWYQQKPGQAPRLVIYADDQRPSGIPDRFSGSGSGTDFTLTISRLEPEDFAVYYCQSYDINIDIVFGGGTKVEIKRTVAAPSVFIFPPSDEQLKSGTASVVCLLNNFYPREAKVQWKVDNALQSGNSQESVTEQDSKDSTYSLSSTLTLSKADYEKHKVYACEVTHQGLSSPVTKSFNRGEC"}}, "data": [{"target": "recombinant human PDGF-BB (human, UniProt P01127 82-190)", "assay": "cell-based or functional assay", "units": {"Potency IC50 (nM) NIH-3T3 hPDGF-BB": "nM"}, "values": [{"binder": "B1", "Potency IC50 (nM) NIH-3T3 hPDGF-BB": 0.066}]}, {"target": "recombinant human PDGF-BB (human, UniProt P01127 82-190)", "assay": "cell-based or functional assay", "remark": "another data set of the same source", "units": {"NIH-3T3 hPDGF-BB Potency IC50": "nM"}, "values": [{"binder": "B2", "NIH-3T3 hPDGF-BB Potency IC50": 0.147}, {"binder": "B3", "NIH-3T3 hPDGF-BB Potency IC50": 0.148}, {"binder": "B4", "NIH-3T3 hPDGF-BB Potency IC50": 0.176}, {"binder": "B5", "NIH-3T3 hPDGF-BB Potency IC50": 0.133}, {"binder": "B6", "NIH-3T3 hPDGF-BB Potency IC50": 0.204}]}]}
